# According to article PMC6695453, “Peptide translocation by the lysosomal ABC transporter TAPL is regulated by coupling efficiency and activation energy” (Scientific Reports, 2019):
# Bridge positions count the residues as written; N and C are the ends. Side chains are listed from the residue outwards. Ends that are not written are not given here. Peptide text beside a SMILES is read from it. I, II: the chains in the order shown.
# T1: TAPL (Homo sapiens, UniProt Q9NP78)
# T1 construct: Human coreTAPL (Q9NP78 UniProt, amino acid 143–766) fused C-terminally to mVenus; made in house; host or cells: Pichia pastoris SMD1168-His+
# T1 sequence (Q9NP78 143-766): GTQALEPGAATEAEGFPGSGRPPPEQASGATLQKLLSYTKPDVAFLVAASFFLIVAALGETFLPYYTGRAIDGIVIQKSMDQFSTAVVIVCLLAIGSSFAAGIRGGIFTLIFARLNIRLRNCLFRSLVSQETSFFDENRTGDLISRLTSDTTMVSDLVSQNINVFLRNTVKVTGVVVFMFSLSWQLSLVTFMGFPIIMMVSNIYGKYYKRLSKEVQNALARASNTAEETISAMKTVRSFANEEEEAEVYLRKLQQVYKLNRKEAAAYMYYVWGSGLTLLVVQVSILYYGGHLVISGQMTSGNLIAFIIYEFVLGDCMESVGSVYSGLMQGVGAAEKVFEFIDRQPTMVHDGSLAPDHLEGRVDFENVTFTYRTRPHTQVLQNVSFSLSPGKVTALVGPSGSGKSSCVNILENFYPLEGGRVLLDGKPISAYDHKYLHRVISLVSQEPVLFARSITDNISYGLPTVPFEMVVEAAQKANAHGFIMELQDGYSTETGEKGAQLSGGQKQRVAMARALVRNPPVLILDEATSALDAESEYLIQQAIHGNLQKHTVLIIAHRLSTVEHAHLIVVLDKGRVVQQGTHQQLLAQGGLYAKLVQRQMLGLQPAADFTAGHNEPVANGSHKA
# T2: coreTAPL (core complex of the transporter associated with antigen processing-like, ABCB9) fused C-terminally … (human, UniProt Q9NP78 143-766)
# T2 construct: TAPL (ABCB9), human, core complex without TMD0, amino acids 143-766 of UniProt Q9NP78; source: reconstituted into proteoliposomes for transport and ATPase assays; not shown: mVenus, C-terminal, kept
# T2 sequence (looked up): T1 sequence (Q9NP78 143-766)
# T3: coreTAPL (core complex of the transporter associated with antigen processing-like, ABCB9) fused C-terminally to mVenus (human) (UniProt Q9NP78)
# T3 sequence: T1 sequence (Q9NP78 143-766)
# B1: 18-mer peptide RRYQKSTELRRYQKSTEL (peptide)
# peptide: RRYQKSTELRRYQKSTEL
# notes: also called unlabeled 18-mer peptide; source: synthetic peptide (solid phase synthesis; Charité, Berlin)
# B2: Atto-655 labeled 9-mer peptide RRYC^Atto-655KSTEL (peptide)
# peptide: RRYC(Atto‑655 maleimide)KSTEL
# notes: source: synthetic peptide (solid phase synthesis)
# Key:
# TAPL [1] = biological target: T1, TAPL; assay: NTP hydrolysis by TAPL, malachite green based assay; type: biochemical
# Protocol: Kinetics were recorded under steady-state conditions in which peptide accumulation in proteoliposomes is far below saturation (Figs S2,S5).
# ATP hydrolysis was determined by malachite green based assay in the absence or presence of 100 µM peptide (filled bar) or ortho-vanadate (500 µM, white bar) (A) or with increasing peptide concentrations (B). Hydrolysis rates of 16-mer and 18-mer peptide were fitted with equation 6. IC50 values, Hill coefficients and kcat are depicted in Table 1. […] All experiments were performed in triplicates, error bars indicate SD.
# The reaction was started by the addition of NTP. Background and autohydrolysis were determined with 500 µM ortho-vanadate or in the absence of protein, respectively. Hydrolysis was stopped by the addition of 20 mM H2SO4, supplemented with malachite green solution (3 mM malachite green, 0.2% (v/v) Tween 20, 1.5% (w/v) ammoniummolybdate) and absorption was detected after 10 min incubation at room temperature at 620 nm using a microplate reader (CLARIOstar, BMG LABTECH). IC50 values for peptides were determined by6 v=vmin+vmax−vmin/1+10^(LOGIC50−[I])⋅n where v represents the peptide inhibitor [I] dependent hydrolysis rate, vmax the maximal hydrolysis rate in the absence of peptide, vmin the minimal hydrolysis rate at saturating peptide concentrations and n the Hill slope. IC50 represents the half maximal inhibitory peptide concentration.
# TAPL [2] = biological target: T1, TAPL; assay: Peptide transport into TAPL proteoliposomes; type: biochemical; conditions: 15 min, 37 °C
# Protocol: (A) Proteoliposomes (0.5 mg/ml lipids) were incubated with 10 µM of 9-mer^FL peptide and 3 mM ATP, 3 mM ADP, without any nucleotide (−) or with 3 mM ATP in the presence of ortho-vanadate (Vi, 500 µM). […] […] Transport was performed in triplicates with error bars indicating SD.
# CoreTAPL fused C-terminally to mVenus was produced in P. pastoris by large scale expression in a 7.5 liter Labfors4 reactor (Infors HT, Einsbach, Germany) by fed batch method and cell pellets were stored at −80 °C[14],[44]. Core[…] fused C-terminally to mVenus was produced in P. pastoris in Erlenmeyer flasks. TmrAB from T. thermophilus was expressed in Escherichia coli and cell pellets were stored at −80 °C[30]. CoreTAPL and TmrAB were purified and reconstituted (40:1 (wt/wt) lipid to protein) as described into unilamellar liposomes composed of E. coli polar lipids and DOPC (7:3 (wt/wt); Avanti Polar Lipids), which were ultrasonicated, five times frozen and thawed and extruded through a 400 nm polycarbonate filter (Avestin, Mannheim, Germany)[13],[14],[30]. Proteoliposomes were snap frozen in liquid nitrogen and stored at −80 °C. […] Concentration of coreTAPL and core[…] was determined by specific absorption of mVenus (ε515 = 45.950 M^−1cm^−1). For calculation of TmrAB concentration ε280 = 159.630 M^−1cm^−1 was applied.
# TAPL [3] = biological target: T1, TAPL; assay: NTP dependent peptide transport by TAPL; type: biochemical; conditions: 37 °C
# Protocol: Subsequently, we performed Michaelis-Menten kinetics of 9-mer peptide (100 µM) transport using increasing ATP and GTP concentrations. […] Additionally, we quantified the nucleotide hydrolysis kinetics of ATP and GTP in the presence and absence of the 9-mer peptide. […] Moreover, we assume a subtle difference in the cross-talk between the nucleotide binding domain and the transmembrane domain, which is caused by the type of purine base.
# (A) NTP dependent peptide transport was performed with 9-mer^FL peptide (100 µM). (B) NTP hydrolysis was analyzed in the presence of 9-mer peptide (100 µM) by radioactive based assay. Experiments were performed in triplicates, error bars indicate SD.
# Pdr5 = conditions: cited from earlier work
# Text: Both nucleotides show the same Km and kcat values in respect of NTP hydrolysis. […] NTP dependent transport was found also for other ABC transporters. […] The full-length ABC transport Pdr5 from yeast hydrolyzes GTP and even UTP, but ...
# MRP1 = conditions: cited from earlier work
# Text: Other ABC transporters like P-glycoprotein have a biphasic substrate dependent ATPase activity. […] Basal ATPase activity of MRP1 is 3-fold stimulated by its substrate leucotriene C4, which forms contacts to both halfs o ...
# [4] = test system: Nc1nc2c(ncn2[C@@H]2O[C@H](COP(=O)(O)OP(=O)(O)OP(=O)(O)O)[C@@H](O)[C@H]2O)c(=O)[nH]1; assay: purified protein, by the assay type; conditions: other: 68 °C, 10 min, 9-mer^FL peptide (30 µM), triplicates, SD
# [5] = test system: Nc1ncnc2c1ncn2[C@@H]1O[C@H](COP(=O)(O)OP(=O)(O)OP(=O)(O)O)[C@@H](O)[C@H]1O; assay: purified protein, by the assay type; conditions: other: 68 °C, 10 min, 9-mer^FL peptide (30 µM), triplicates, SD
# [6] = biological target: T2, coreTAPL (core complex of the …); assay: MST; competition: 100 nM 9-mer^Atto-655 peptide and 10 µM TAPL with unlabeled competitor peptide (18-mer titrated; 9-mer at 4 mM); 22 °C; Ki fitted considering competitor depletion; conditions: both partners purified
# [7] = biological target: T2, coreTAPL (core complex of the …); assay: cell-based or functional assay
# [8] = biological target: T3, coreTAPL (core complex of the transporter associated with antigen processing-like, ABCB9) fused C-terminally to mVenus (human)
# [9] = biological target: T2, coreTAPL (core complex of the …); assay: MST; 100 nM 9-mer^Atto-655 peptide with increasing TAPL concentrations; 20 mM HEPES, 140 mM NaCl, 0.05% DDM, 15% glycerol, pH 7.5; 22 °C; one-site binding model; conditions: both partners purified
# [10] = biological target: T3, coreTAPL (core complex of the transporter associated with antigen processing-like, ABCB9) fused C-terminally to mVenus (human); remark: listed apart in the source
# [11] = biological target: T3, coreTAPL (core complex of the transporter associated with antigen processing-like, ABCB9) fused C-terminally to mVenus (human); remark: listed apart in the source
molecule,measurement,setting,value
"CC(C)C[C@H](NC(=O)[C@H](CCC(=O)O)NC(=O)[C@@H](NC(=O)[C@H](CO)NC(=O)[C@H](CCCCNC(=O)[C@H](CCCCN)NC(=O)[C@H](CCCCN)NC(=O)[C@H](CCCCN)NC(=O)[C@H](CCCCN)NC(=O)[C@H](CCCCN)NC(=O)[C@H](CCCCN)NC(=O)[C@H](CCCCN)NC(=O)[C@@H](N)CCCCN)NC(=O)[C@H](CS)NC(=O)[C@H](Cc1ccc(O)cc1)NC(=O)[C@@H](N)CCCNC(=N)N)[C@@H](C)O)C(=O)O [16-mer, RYCK(K8)STEL] (I: H-KKKKKKKK / II: H-RYCKSTEL-OH; amide I:C-II:4; N-terminus assumed)",ATP per translocated peptide,TAPL [1]; ATP hydrolysis at saturating peptide divided by peptide transport turnover,100 ATP per translocated peptide
same,Hill slope of ATP hydrolysis inhibition,"TAPL [1]; proteoliposomes, 3 mM ATP, 15 min, 37 °C, malachite green, unlabeled peptides",−2.09 ± 0.73
same,kcat(ATP) rate constant of ATP hydrolysis,"TAPL [1]; under saturating peptide concentration, 3 mM ATP, 15 min, 37 °C, malachite green, unlabeled peptides",0.367 ± 0.067 s⁻¹
same,kcat(Pep) turnover number of peptide transport,"TAPL [2]; proteoliposomes, 3 mM ATP, pH 7.5, fluorescein labeled (FL) peptides used, triplicates, SD, listed as 16-mer^FL",0.00417 s⁻¹
Nc1ncnc2c1ncn2[C@@H]1O[C@H](COP(=O)(O)OP(=O)(O)OP(=O)(O)O)[C@@H](O)[C@H]1O [ATP],"fold turnover number of peptide transport, ATP over GTP","TAPL [3]; ATP vs GTP, 9-mer peptide (100 µM)",6 fold
same,nucleotide hydrolysis by Pdr5 (in words),"Pdr5; GTP, UTP, ATP",highest efficiency
Clc1ccccc1C(c1ccccc1)(c1ccccc1)n1ccnc1 [clotrimazole],effect on Pdr5 ATPase activity (in words),Pdr5; ATP hydrolysis,inhibited
same,effect on Pdr5 GTP and UTP hydrolysis (in words),Pdr5; GTP and UTP hydrolysis,not affected
CCCCC/C=C\C\C=C/C=C/C=C/[C@@H](SC[C@H](NC(=O)CC[C@H](N)C(=O)O)C(=O)NCC(=O)O)[C@@H](O)CCCC(=O)O [leucotriene C4],fold stimulation of basal ATPase activity,MRP1,3 fold
[O]=[V]([O-])([O-])[O-] [ortho-vanadate],inhibition of GTP dependent peptide transport (in words),"TAPL [3]; ortho-vanadate 500 µM, 3 mM GTP, 10 µM 9-mer^FL, 15 min",inhibited
same,effect on basal ATP hydrolysis (in words),"TAPL [1]; 3 mM ATP, 15 min, 37 °C, malachite green, peptide up to 100 µM or ortho-vanadate 500 µM",blocked
same,effect on GTP hydrolysis (in words),"TAPL [1]; 3 mM GTP, 15 min, 37 °C, malachite green, 9-mer peptide 100 µM or ortho-vanadate 500 µM",inhibited
same,inhibition of ATP dependent peptide translocation (in words),"TAPL [2]; ortho-vanadate 500 µM, 3 mM ATP, 10 µM 9-mer^FL",specifically inhibited
"RRYC^FluoresceinKSTEL [9-mer^FL, fluorescein labeled 9-mer peptide]",Km,"TAPL [2]; read-out: Km(Pep) of 9-mer transport with GTP, 3 mM GTP, proteoliposomes, triplicates, SD",4.4 ± 0.8 µM
RRYQKSTELRRYQKSTEL [18-mer],reduction of ATP hydrolysis,"TAPL [1]; 100 µM peptide, 3 mM ATP, 15 min, 37 °C, vs absence of peptide",50%
TmrAB (Thermus thermophilus HB27),Km,[4]; radioactive assay,617 ± 144 µM
same,kcat,[4]; radioactive assay,2.47 ± 0.2 s⁻¹
same,Km,[4]; pH 7.5,391 ± 136 µM
same,kcat,[4]; pH 7.5,0.0167 ± 0.00167 s⁻¹
same,Km,[5]; radioactive assay,661 ± 176 µM
same,kcat,[5]; radioactive assay,2.25 ± 0.217 s⁻¹
same,Km,[5]; pH 7.5,782 ± 213 µM
same,kcat,[5]; pH 7.5,0.105 ± 0.01 s⁻¹
B1,Ki,[6],11.8 ± 3.6 µM
same,"IC50 of inhibition of ATP hydrolysis of reconstituted TAPL by peptide (malachite green assay, 3 mM ATP, 37 °C)",[7],15 µM
RRYQKSTELRRYC(5‑iodoacetamidofluorescein)KSTEL [fluorescein labeled 18-mer peptide …],"K (m(Pep)) of peptide transport into TAPL proteoliposomes, 3 mM ATP, 15 min, 37 °C",[8],7 µM
B2,Kd,[9],5.4 ± 0.8 µM
RRYC(5‑iodoacetamidofluorescein)KSTEL [fluorescein labeled 9-mer peptide RRYC^FluoresceinKSTEL],"K (m(Pep)) of 9-mer^FL peptide transport into TAPL proteoliposomes at 24 °C, 3 mM ATP",[10],10.8 µM
same,"K (m(Pep)) of 9-mer^FL peptide transport into TAPL proteoliposomes at 33 °C, 3 mM ATP",[10],15.3 µM
same,"K (m(Pep)) of 9-mer^FL peptide transport into TAPL proteoliposomes at 42 °C, 3 mM ATP",[10],17.3 µM
same,K (m(pep)) of 9-mer transport into TAPL proteoliposomes in the presence of 3 mM GTP,[11],4.4 µM
same,"K (m(Pep)) of peptide transport into TAPL proteoliposomes, 3 mM ATP, 15 min, 37 °C",[8],15 µM
RYC(5‑iodoacetamidofluorescein)K([Lys-Lys-Lys-Lys-Lys-Lys-Lys-Lys])STEL (also: octa-lysine attached by isopeptide bonds) [fluorescein labeled branched 16-mer peptide RYCK(K)8STEL],"K (m(Pep)) of peptide transport into TAPL proteoliposomes, 3 mM ATP, 15 min, 37 °C",[8],8 µM
RYCK([Lys-Lys-Lys-Lys-Lys-Lys-Lys-Lys])STEL (also: octa-lysine attached by isopeptide bonds) [branched 16-mer peptide RYCK(K8)STEL],"IC50 of inhibition of ATP hydrolysis of reconstituted TAPL by peptide (malachite green assay, 3 mM ATP, 37 °C)",[8],22 µM
